From publication PMC5098251 (Scientific Reports, 2016)
Numbering of substitutions follows the chain as printed. Numbers in names are those of the source.

B1: SNAP-E09 scFv-HA (scFv, V domains shown)
VH: QLQLQESGPGLVKPSETLSLTCTVSGASISANSYYGVWVRQSPGKGLEWVGSIAYRGNSNSGSTYYNPSLKSRATVSVDTSKNQVSLRLTSVTAADTALYYCARRQLLDDGTGYQWAAFDVWGQGTMVTVSS
VL: QSVLTQPPSVSEAPRQTVTISCSGNSFNIGRYPVNWYQQLPGKAPKLLIYYNNLRFSGVSDRFSGSKSGTSASLAIRDLLSEDEADYYCSTWDDTLKGWVFGGGTKVTVL
notes: VH: as the VH of m6 (E09); scFv linker, as in m6; VL: as the VL of m6 (E09); 47 kDa fusion; The parent vector pIVEX-SNAP-GFP holds the R30I mutant of the SNAP-tag; also called SNAP-scFv-HA; parent; source: in vitro translated (PURExpress), captured on BG-DNA-coated streptavidin beads; not shown: SNAP-tag, N-terminal, kept; HA, C-terminal, kept
B2: SNAP-A11b scFv-HA (scFv, V domains shown)
VH: B1 VH with S25P, S132G
VL: B1 VL with I29T, Y51S, F56L, K97E
notes: numbers count on: Kabat numbering; scFv linker, as in m6; On-bead form of m14; not shown: SNAP-tag, N-terminal, kept; HA, C-terminal, kept
B3: SNAP-A09a scFv-HA (scFv, V domains shown)
VH: B1 VH with S7P, V12T, S25P, N32D
VL: B1 VL with Y51H
notes: numbers count on: Kabat numbering; scFv linker, as in m6; On-bead form of m13; not shown: SNAP-tag, N-terminal, kept; HA, C-terminal, kept
B4: SNAP-A01b scFv-HA (scFv, V domains shown)
VH: B1 VH with S25P, V39I, Q84R, S131P
VL: B1 VL with A13V, Y51H
notes: numbers count on: Kabat numbering; scFv linker, as in m6; On-bead form of m10; not shown: SNAP-tag, N-terminal, kept; HA, C-terminal, kept
B5: SNAP-A03a scFv-HA (scFv, V domains shown)
VH: B1 VH with S25P, K45R, Q106R, V121N, G123D
VL: B1 VL with P7S, I29T, Y51S, F56L, K97E
notes: numbers count on: Kabat numbering; scFv linker, as in m6; On-bead form of m11; not shown: SNAP-tag, N-terminal, kept; HA, C-terminal, kept
B6: SNAP-E09_Y58S scFv-HA (scFv, V domains shown)
VH: B1 VH with Y65S
VL: B1 VL
notes: whole scFv (VH, linker, VL) as in m3 (E09) with Y58S; not shown: SNAP-tag, N-terminal, kept; HA, C-terminal, kept
B7: SNAP-A07a scFv-HA (scFv, V domains shown)
VH: B1 VH with S25P, S72G, V121N, G123D
VL: B1 VL with Y51S
notes: numbers count on: Kabat numbering; scFv linker, as in m6; On-bead form of m15; not shown: SNAP-tag, N-terminal, kept; HA, C-terminal, kept
B8: SNAP-Ep6b_B01 scFv-HA (scFv, V domains shown)
VH: B1 VH with T80S
VL: B1 VL with F27S, Y51S, N52D, S60P, S71T, K97E
notes: numbers count on: Kabat numbering; scFv linker, as in m6; not shown: SNAP-tag, N-terminal, kept; HA, C-terminal, kept
B9: E09 IgG (antibody, V domains shown)
VH: B1 VH
VL: B1 VL
notes: VH: as the VH of m6 (E09); IgG heavy constant region; VL: as the VL of m6 (E09); light constant region; IgG; also called parent
B10: A03a scFv (scFv, V domains shown)
VH: B1 VH with S25P, K45R, Q106R, V121N, G123D
VL: B1 VL with P7S, I29T, Y51S, F56L, K97E
notes: numbers count on: Kabat numbering; scFv linker, as in m6; Selected by BeSD, round IV
B11: A09a scFv (scFv, V domains shown)
VH: B1 VH with S7P, V12T, S25P, N32D
VL: B1 VL with Y51H
notes: as for B10
B12: A01b scFv (scFv, V domains shown)
VH: B1 VH with S25P, V39I, Q84R, S131P
VL: B1 VL with A13V, Y51H
notes: as for B10
B13: Ep6b_B01 IgG (antibody, V domains shown)
VH: B1 VH with T80S
VL: B1 VL with F27S, Y51S, N52D, S60P, S71T, K97E
notes: numbers count on: Kabat numbering; IgG heavy constant region; light constant region; IgG
B14: anti-Fas receptor scFv E09 (scFv, V domains shown)
VH: B1 VH
VL: B1 VL
notes: VH of E09; scFv linker; VL of E09; also called parent; wild-type E09
B15: A11b scFv (scFv, V domains shown)
VH: B1 VH with S25P, S132G
VL: B1 VL with I29T, Y51S, F56L, K97E
notes: as for B10
B16: A07a IgG (antibody, V domains shown)
VH: B1 VH with S25P, S72G, V121N, G123D
VL: B1 VL with Y51S
notes: numbers count on: Kabat numbering; IgG heavy constant region; light constant region; IgG made from the scFv A07a
B17: Ep6b_B01 scFv (scFv, V domains shown)
VH: B1 VH with T80S
VL: B1 VL with F27S, Y51S, N52D, S60P, S71T, K97E
notes: numbers count on: Kabat numbering; scFv linker, as in m6
B18: A05a scFv (scFv, V domains shown)
VH: B1 VH with G8S, L20I, S25P
VL: B1 VL with Y51H
notes: numbers count on: Kabat numbering; scFv linker, as in m6; Most abundant variant of round IV; the same as the Clade 2 consensus R4aH; also called R4aH
B19: R4aS IgG (antibody, V domains shown)
VH: B1 VH with S25P, V121N, G123D
VL: B1 VL with I29T, Y51S, F56L, K97E
notes: numbers count on: Kabat numbering; IgG heavy constant region; light constant region; IgG; also called antibody R4aS
B20: A07a scFv (scFv, V domains shown)
VH: B1 VH with S25P, S72G, V121N, G123D
VL: B1 VL with Y51S
B21: R4aS scFv (scFv, V domains shown)
VH: B1 VH with S25P, V121N, G123D
VL: B1 VL with I29T, Y51S, F56L, K97E
B22: E09 scFv with the single mutation VL Y50S (scFv, V domains shown)
VH: B1 VH
VL: B1 VL with Y51S
notes: VH: as the VH of m6 (E09); scFv linker, as in m6; numbers count on: Kabat numbering; Made by site-directed mutagenesis of E09 in pCantab6
B23: E09 scFv with the single mutation VH S25P (scFv, V domains shown)
VH: B1 VH with S25P
VL: B1 VL
notes: numbers count on: Kabat numbering; scFv linker, as in m6; VL: as the VL of m6 (E09); Made by site-directed mutagenesis of E09 in pCantab6

Target: T1, FasR-Fc (Fc-fused Fas receptor) (Homo sapiens, UniProt P25445)
T1 construct: Fas receptor (FasR, CD95), human; also called Fas-Fc; CD95; source: bought: R&D Systems
Test: on-bead equilibrium titration read by flow cytometry (Bead Surface Display); apparent; Fas-Fc titrated against beads displaying SNAP-scFv-HA; normalised median fluorescence fitted to a saturation binding curve
Conditions: one partner purified

T1 sequence (P25445 26-173): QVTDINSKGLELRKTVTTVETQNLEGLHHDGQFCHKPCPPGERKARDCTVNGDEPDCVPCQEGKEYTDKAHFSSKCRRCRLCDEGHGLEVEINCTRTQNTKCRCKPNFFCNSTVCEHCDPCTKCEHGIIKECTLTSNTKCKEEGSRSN

Binder | Kd [nM]
B1 | 4.3 ± 0.3

Target: T1, FasR-Fc (Fc-fused Fas receptor)
Test: on-bead binding assay read by flow cytometry (Bead Surface Display); SNAP-scFv-HA made by in vitro transcription/translation and held on streptavidin beads through BG-DNA anchors; beads incubated 1 h at room temperature with FasR-Fc (1 nM unless stated; 1, 10 and 30 nM in Fig. 2B), then with DyLight488-labelled goat anti-Fc; 1.5% marvel in PBS, washes with PBS and 0.05% Tween 20
Conditions: one partner purified

Binder | fold increase of MFS over E09 [fold] | binding result | fold signal increase over the background (FasR at 1 nM) [fold] | fold MFS over E09_Y58S (1 nM antigen) [fold] | fold MFS over E09_Y58S (30 nM antigen) [fold]
B2 | > 2 | – | – | – | –
B3 | > 2 | – | – | – | –
B4 | > 2 | – | – | – | –
B5 | > 2 | – | – | – | –
B6 | – | binds | – | – | –
B1 | – | – | > 1250 | – | –
B7 | > 2 | – | – | – | –
B8 | – | – | – | 8.4 | 1.8

Target: T2, recombinant human FasR (Homo sapiens, UniProt P25445)
T2 construct: Fas receptor (FasR, CD95), human, recombinant; The FasR of the BLI and SPR experiments; Details are in Supplementary Protocols 8-10; also called recombinant FasR
Test: BLI; Octet Red384; recombinant human FasR; 1:1 Langmuir model; at least in duplicate; who was immobilised is not told (Supplementary Protocols 8-10)
Conditions: both partners purified

T2 sequence (P25445 26-335): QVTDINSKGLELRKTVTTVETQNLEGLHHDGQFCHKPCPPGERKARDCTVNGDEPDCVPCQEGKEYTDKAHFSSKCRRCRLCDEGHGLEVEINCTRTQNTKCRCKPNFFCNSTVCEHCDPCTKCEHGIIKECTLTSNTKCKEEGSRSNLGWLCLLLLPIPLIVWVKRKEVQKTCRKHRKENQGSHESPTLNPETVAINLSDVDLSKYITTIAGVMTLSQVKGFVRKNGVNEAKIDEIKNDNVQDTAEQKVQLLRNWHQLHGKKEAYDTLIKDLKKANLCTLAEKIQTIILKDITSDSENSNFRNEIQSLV

Binder | Kd [nM] | koff [s⁻¹] | kon [M⁻¹ s⁻¹]
B9 | 15.7 | 0.00266 | 236000
B10 | 1.09 | 0.000181 | 240000
B11 | 2.63 | 0.00029 | 147000
B12 | 2.15 | 0.000272 | 168000
B13 | 0.23 | 5.9e-05 | 402000
B14 | 7.6 | 0.000956 | 236000
B15 | 1.09 | 0.000111 | 130000
B16 | 1.02 | 0.000171 | 277000
B17 | 0.71 | 0.000125 | 214000
B18 | 2.89 | 0.00039 | 153000
B19 | 0.09 | 1.2e-05 | 249000

Target: T2, recombinant human FasR
Test: SPR; BIAcore T100; low density IgG-coated chip surface, recombinant human FasR; 1:1 Langmuir model; at least in duplicate
Conditions: both partners purified

Binder | Kd [nM] | koff [s⁻¹] | kon [M⁻¹ s⁻¹]
B9 | 13.7 | 0.00239 | 174000
B13 | 0.06 | 4.4e-05 | 746000
B16 | 0.29 | 6.7e-05 | 230000
B19 | 0.14 | 3.8e-05 | 282000

Target: T2, recombinant human FasR
Test: BLI; Octet Red384; recombinant human FasR; 1:1 Langmuir model; at least in duplicate; who was immobilised is not told (Supplementary Protocols 8-10)
Conditions: not given

Binder | Kd [nM] | koff [s⁻¹] | kon [M⁻¹ s⁻¹]
B20 | 0.4 | 5.6e-05 | 162000
B21 | 0.38 | 4.5e-05 | 117000

Target: T2, recombinant human FasR
Test: as above
Conditions: both partners purified
Remark: another data set of the same source

Binder | fold increase in affinity over the parent scFv E09 (Kd) [fold]
B22 | 4
B23 | 4
